One block for each binder: values may come before it.
Columns and labels:
[1] = molecular target: T1, PD-L1 at the surface of transduced cells (UniProt Q9NZQ7 19-290, limits assumed); test: cell-based or functional assay
[2] = molecular target: T1, PD-L1 at the surface of transduced cells; test: flow cytometry, CHO-PD-L1 cells
[3] = molecular target: T2, recombinant human BTN3A1 (human, UniProt O00481 30-254); test: SPR
T2 construct: Soluble form of the antigen used in SPR; also called rhBTN3A1; recombinant BTN3A1 protein

[4] = molecular target: T3, recombinant human PD-L1 (human, UniProt Q9NZQ7 19-239, limits assumed); test: SPR
T3 construct: Soluble antigen in SPR; also called rhPD-L1

[5] = molecular target: T4, BTN3A1 at the surface of HEK-BTN3A1 cells (human, UniProt O00481 30-513); test: flow cytometry, HEK-BTN3A1 cells
T4 construct: HEK 293T BTN2A/BTN3A KO cells transduced with a BTN3A1 expressing vector
T4 sequence (O00481 30-513 limits assumed): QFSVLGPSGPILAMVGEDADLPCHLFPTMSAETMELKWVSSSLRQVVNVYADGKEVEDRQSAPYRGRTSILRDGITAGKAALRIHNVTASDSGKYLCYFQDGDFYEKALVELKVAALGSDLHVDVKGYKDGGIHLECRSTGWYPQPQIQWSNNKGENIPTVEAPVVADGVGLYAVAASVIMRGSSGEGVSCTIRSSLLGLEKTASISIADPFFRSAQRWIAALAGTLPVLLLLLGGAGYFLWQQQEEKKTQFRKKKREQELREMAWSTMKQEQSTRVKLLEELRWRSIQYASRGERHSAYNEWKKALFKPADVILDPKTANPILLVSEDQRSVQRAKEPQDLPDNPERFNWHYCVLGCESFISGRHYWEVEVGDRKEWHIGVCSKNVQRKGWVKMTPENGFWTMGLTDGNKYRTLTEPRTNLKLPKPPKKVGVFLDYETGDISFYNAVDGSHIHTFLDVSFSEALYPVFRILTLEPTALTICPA

T1 sequence (Q9NZQ7 19-290 limits assumed): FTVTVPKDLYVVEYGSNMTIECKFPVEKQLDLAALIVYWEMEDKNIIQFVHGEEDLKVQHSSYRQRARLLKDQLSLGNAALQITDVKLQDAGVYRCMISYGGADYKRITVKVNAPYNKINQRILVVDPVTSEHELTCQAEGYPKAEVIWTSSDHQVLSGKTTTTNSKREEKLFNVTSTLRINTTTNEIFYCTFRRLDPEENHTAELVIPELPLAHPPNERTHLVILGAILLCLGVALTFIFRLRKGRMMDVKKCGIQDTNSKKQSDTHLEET
T2 sequence (O00481 30-254 limits assumed): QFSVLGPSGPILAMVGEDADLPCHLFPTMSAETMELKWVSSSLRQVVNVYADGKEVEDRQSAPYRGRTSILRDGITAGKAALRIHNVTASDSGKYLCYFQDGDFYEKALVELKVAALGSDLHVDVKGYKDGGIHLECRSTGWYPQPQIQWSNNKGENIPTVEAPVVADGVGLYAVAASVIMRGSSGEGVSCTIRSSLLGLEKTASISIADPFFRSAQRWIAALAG
T3 sequence (Q9NZQ7 19-239 limits assumed): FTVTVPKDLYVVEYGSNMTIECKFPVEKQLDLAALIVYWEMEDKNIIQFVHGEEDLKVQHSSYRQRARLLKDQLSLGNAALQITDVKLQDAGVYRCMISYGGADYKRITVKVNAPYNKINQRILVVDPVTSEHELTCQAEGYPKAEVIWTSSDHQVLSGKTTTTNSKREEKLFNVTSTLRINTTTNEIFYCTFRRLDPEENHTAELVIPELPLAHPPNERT

Jurkat-PD-1 activation at 10 nM [1]: 5 fold-change to medium
Jurkat-PD-1 activation at 100 nM [1]: 7.9 fold-change to medium
MFI at 10 nM [2]: 973000 MFI
MFI at 100 nM [2]: 1.28e+06 MFI
Kd [3]: 68 pM
Kd [4]: 97 pM
MFI at 10 nM [5]: 525000 MFI
MFI at 100 nM [5]: 1.03e+06 MFI
B1: bsAb035 (bispecific antibody)
heavy (part 1 of 2): QVQLVQSGAEVKKPGASVKLSCKASGYIFTRYYMYWVKQRPGQGLEWIGEINPNNGGTKFNEKFKNRATLTVDKSISTAYMELSRLRSDDTAVYYCSREDDYDGTPFAMDYWGQGTLVTVSS
heavy (part 2 of 2): GGGGSGGGGSGGGGSGGGGSEVQLVESGGGLVQPGGSLRLSCAASGFTFSRYWMSWVRQAPGKGLEWVANIKQDGSEKYYVDSVKGRFTISRDNAKNSLYLQMNSLRAEDTAVYYCAREGGWFGELAFDYWGQGTLVTVSSGGGGSGGGGSGGGGSGGGGSEIVLTQSPGTLSLSPGERATLSCRASQRVSSSYLAWYQQKPGQAPRLLIYDASSRATGIPDRFSGSGSGTDFTLTISRLEPEDFAVYYCQQYGSLPWTFGQGTKVEIK
heavy: B1 heavy (part 1 of 2)
light: not shown
notes: IgG anti-BTN3A, one scFv anti-PD-L1; not shown: IgG1 CH1-hinge-CH2-CH3

Jurkat-PD-1 activation at 10 nM [1]: 6 fold-change to medium
Jurkat-PD-1 activation at 100 nM [1]: 7.5 fold-change to medium
MFI at 10 nM [2]: 1.04e+06 MFI
MFI at 100 nM [2]: 1.25e+06 MFI
Kd [3]: 65 pM
Kd [4]: 66 pM
MFI at 10 nM [5]: 634000 MFI
MFI at 100 nM [5]: 1.23e+06 MFI
B2: bsAb040 (bispecific antibody)
heavy (part 1 of 2): B1 heavy (part 1 of 2)
heavy (part 2 of 2): GGGGSGGGGSGGGGSGGGGSEIVLTQSPGTLSLSPGERATLSCRASQRVSSSYLAWYQQKPGQAPRLLIYDASSRATGIPDRFSGSGSGTDFTLTISRLEPEDFAVYYCQQYGSLPWTFGQGTKVEIKGGGGSGGGGSGGGGSGGGGSEVQLVESGGGLVQPGGSLRLSCAASGFTFSRYWMSWVRQAPGKGLEWVANIKQDGSEKYYVDSVKGRFTISRDNAKNSLYLQMNSLRAEDTAVYYCAREGGWFGELAFDYWGQGTLVTVSS
heavy: B1 heavy (part 1 of 2)
light: not shown
notes: as for B1

Jurkat-PD-1 activation at 10 nM [1]: 5.8 fold-change to medium
Jurkat-PD-1 activation at 100 nM [1]: 7.4 fold-change to medium
MFI at 10 nM [2]: 820000 MFI
MFI at 100 nM [2]: 984000 MFI
Kd [3]: 76 pM
Kd [4]: 108 pM
MFI at 10 nM [5]: 344000 MFI
MFI at 100 nM [5]: 862000 MFI
B3: bsAb055 (bispecific antibody)
heavy 1: B1 heavy (part 2 of 2)
heavy 2: B1 heavy (part 1 of 2)
light: not shown
notes: one Fab arm anti-BTN3A, one scFv anti-PD-L1; not shown: CH2-CH3 (Fc); IgG1 CH1-hinge-CH2-CH3

Jurkat-PD-1 activation at 10 nM [1]: 6.4 fold-change to medium
Jurkat-PD-1 activation at 100 nM [1]: 2.3 fold-change to medium
MFI at 10 nM [2]: 682000 MFI
MFI at 100 nM [2]: 722000 MFI
Kd [3]: 504 pM
Kd [4]: 43 pM
MFI at 10 nM [5]: 512000 MFI
MFI at 100 nM [5]: 1.14e+06 MFI
B4: bsAb011 (bispecific antibody)
heavy: QVQLVQSGAEVKKPGASVKLSCKASGYIFTRYYMYWVKQRPGQGLEWIGEINPNNGGTKFNEKFKNRATLTVDKSISTAYMELSRLRSDDTAVYYCSREDDYDGTPFAMDYWGQGTLVTVSSASTKGPSVFPLAPSSKSTSGGTAALGCLVKDYFPEPVTVSWNSGALTSGVHTFPAVLQSSGLYSLSSVVTVPSSSLGTQTYICNVNHKPSNTKVDKRVEPKSCDKTHTCPPCPAPEFEGGPSVFLFPPKPKDTLMISRTPEVTCVVVDVSHEDPEVKFNWYVDGVEVHNAKTKPREEQYNSTYRVVSVLTVLHQDWLNGKEYKCKVSNKALPASIEKTISKAKGQPREPQVYTLPPSREEMTKNQVSLTCLVKGFYPSDIAVEWESNGQPENNYKTTPPVLDSDGSFFLYSKLTVDKSRWQQGNVFSCSVMHEALHNHYTQKSLSLSPG
light: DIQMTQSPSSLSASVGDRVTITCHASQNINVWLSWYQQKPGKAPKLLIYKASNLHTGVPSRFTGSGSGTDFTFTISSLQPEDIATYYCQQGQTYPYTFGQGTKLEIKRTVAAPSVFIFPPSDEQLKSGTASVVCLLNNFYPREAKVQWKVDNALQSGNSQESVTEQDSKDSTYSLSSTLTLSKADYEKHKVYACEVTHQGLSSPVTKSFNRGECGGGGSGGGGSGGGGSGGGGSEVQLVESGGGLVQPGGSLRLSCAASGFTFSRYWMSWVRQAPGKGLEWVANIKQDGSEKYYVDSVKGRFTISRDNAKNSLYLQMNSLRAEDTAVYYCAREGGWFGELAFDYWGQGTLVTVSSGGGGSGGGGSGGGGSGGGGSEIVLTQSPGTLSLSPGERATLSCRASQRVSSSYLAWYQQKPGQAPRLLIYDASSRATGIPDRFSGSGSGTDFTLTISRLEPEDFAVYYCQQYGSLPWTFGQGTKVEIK
notes: IgG anti-BTN3A, scFv anti-PD-L1

MFI at 10 nM [2]: 1.02e+06 MFI
MFI at 100 nM [2]: 1.16e+06 MFI
Kd [3]: 100 pM
Kd [4]: 76 pM
MFI at 10 nM [5]: 635000 MFI
MFI at 100 nM [5]: 1.18e+06 MFI
B5: bsAb069 (bispecific antibody)
heavy 1: EVQLVESGGGLVQPGGSLRLSCAASGFTFSRYWMSWVRQAPGKGLEWVANIKQDGSEKYYVDSVKGRFTISRDNAKNSLYLQMNSLRAEDTAVYYCAREGGWFGELAFDYWGQGTLVTVSS
heavy 2: DIQMTQSPSSLSASVGDRVTITCHASQNINVWLSWYQQKPGKAPKLLIYKASNLHTGVPSRFTGSGSGTDFTFTISSLQPEDIATYYCQQGQTYPYTFGQGTKLEIKGGGGSGGGGSGGGGSGGGGSQVQLVQSGAEVKKPGASVKLSCKASGYIFTRYYMYWVKQRPGQGLEWIGEINPNNGGTKFNEKFKNRATLTVDKSISTAYMELSRLRSDDTAVYYCSREDDYDGTPFAMDYWGQGTLVTVSSGGGGSGGGGSGGGGSGGGGS
light: EIVLTQSPGTLSLSPGERATLSCRASQRVSSSYLAWYQQKPGQAPRLLIYDASSRATGIPDRFSGSGSGTDFTLTISRLEPEDFAVYYCQQYGSLPWTFGQGTKVEIKRTVAAPSVFIFPPSDEQLKSGTASVVCLLNNFYPREAKVQWKVDNALQSGNSQESVTEQDSKDSTYSLSSTLTLSKADYEKHKVYACEVTHQGLSSPVTKSFNRGECGGGGSGGGGSGGGGSGGGGSQVQLVQSGAEVKKPGASVKLSCKASGYIFTRYYMYWVKQRPGQGLEWIGEINPNNGGTKFNEKFKNRATLTVDKSISTAYMELSRLRSDDTAVYYCSREDDYDGTPFAMDYWGQGTLVTVSSGGGGSGGGGSGGGGSGGGGSDIQMTQSPSSLSASVGDRVTITCHASQNINVWLSWYQQKPGKAPKLLIYKASNLHTGVPSRFTGSGSGTDFTFTISSLQPEDIATYYCQQGQTYPYTFGQGTKLEIK
notes: not shown: IgG1 CH1-hinge-CH2-CH3; CH2-CH3 (Fc)

MFI at 10 nM [2]: 1.05e+06 MFI
MFI at 100 nM [2]: 1.2e+06 MFI
Kd [3]: 74 pM
Kd [4]: 79 pM
MFI at 10 nM [5]: 790000 MFI
MFI at 100 nM [5]: 1e+06 MFI
B6: bsAb070 (bispecific antibody)
heavy 1: B5 heavy 1
heavy 2: QVQLVQSGAEVKKPGASVKLSCKASGYIFTRYYMYWVKQRPGQGLEWIGEINPNNGGTKFNEKFKNRATLTVDKSISTAYMELSRLRSDDTAVYYCSREDDYDGTPFAMDYWGQGTLVTVSSGGGGSGGGGSGGGGSGGGGSDIQMTQSPSSLSASVGDRVTITCHASQNINVWLSWYQQKPGKAPKLLIYKASNLHTGVPSRFTGSGSGTDFTFTISSLQPEDIATYYCQQGQTYPYTFGQGTKLEIKGGGGSGGGGSGGGGSGGGGS
light: EIVLTQSPGTLSLSPGERATLSCRASQRVSSSYLAWYQQKPGQAPRLLIYDASSRATGIPDRFSGSGSGTDFTLTISRLEPEDFAVYYCQQYGSLPWTFGQGTKVEIKRTVAAPSVFIFPPSDEQLKSGTASVVCLLNNFYPREAKVQWKVDNALQSGNSQESVTEQDSKDSTYSLSSTLTLSKADYEKHKVYACEVTHQGLSSPVTKSFNRGECGGGGSGGGGSGGGGSGGGGSDIQMTQSPSSLSASVGDRVTITCHASQNINVWLSWYQQKPGKAPKLLIYKASNLHTGVPSRFTGSGSGTDFTFTISSLQPEDIATYYCQQGQTYPYTFGQGTKLEIKGGGGSGGGGSGGGGSGGGGSQVQLVQSGAEVKKPGASVKLSCKASGYIFTRYYMYWVKQRPGQGLEWIGEINPNNGGTKFNEKFKNRATLTVDKSISTAYMELSRLRSDDTAVYYCSREDDYDGTPFAMDYWGQGTLVTVSS
notes: as for B5
